Literature values, collected in article PMC3767571.

Target: Sortilin (Homo sapiens) (UniProt Q99523)
UniProt Q99523, sequence (Q99523 78-755): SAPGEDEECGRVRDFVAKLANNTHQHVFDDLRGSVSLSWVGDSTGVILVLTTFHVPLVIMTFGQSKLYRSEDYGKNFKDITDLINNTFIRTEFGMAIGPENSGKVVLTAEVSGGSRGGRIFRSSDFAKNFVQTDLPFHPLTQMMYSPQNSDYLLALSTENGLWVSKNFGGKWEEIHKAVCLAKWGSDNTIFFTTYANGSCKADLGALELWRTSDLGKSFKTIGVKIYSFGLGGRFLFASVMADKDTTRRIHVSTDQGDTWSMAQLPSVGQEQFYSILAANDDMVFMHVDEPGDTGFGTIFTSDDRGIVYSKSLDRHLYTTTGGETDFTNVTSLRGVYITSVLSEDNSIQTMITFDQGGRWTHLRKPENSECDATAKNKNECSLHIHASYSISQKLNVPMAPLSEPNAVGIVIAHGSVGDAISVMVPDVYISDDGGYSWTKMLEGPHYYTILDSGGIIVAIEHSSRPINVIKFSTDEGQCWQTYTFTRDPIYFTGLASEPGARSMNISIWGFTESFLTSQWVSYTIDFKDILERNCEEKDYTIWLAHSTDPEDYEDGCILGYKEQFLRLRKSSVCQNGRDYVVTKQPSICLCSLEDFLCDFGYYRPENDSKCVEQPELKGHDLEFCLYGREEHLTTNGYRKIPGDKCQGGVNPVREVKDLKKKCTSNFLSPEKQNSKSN

Kd: 11 nM
Substance: Progranulin (from UniProt P28799)
